# Patent US20110275699
# B1: P/CAF (Upstate), recombinant/purified enzyme (protein)
# chain: MLEEEVYSQNSPIWDQDFLSASSRTSQLGIQTVINPPPVAGTISYNSTSSSLEQPNAGSSSPACKASSGLEANPGEKRKMTDSHVLEEAKKPRVMGDIPMELINEVMSTITDPAAMLGPETNFLSAHSARDEAARLEERRGVIEFHVVGNSLNQKPNKKILMWLVGLQNVFSHQLPRMPKEYITRLVFDPKHKTLALIKDGRVIGGICFRMFPSQGFTEIVFCAVTSNEQVKGYGTHLMNHLKEYHIKHDILNFLTYADEYAIGYFKKQGFSKEIKIPKTKYVGYIKDYEGATLMGCELNPRIPYTEFSVIIKKQKEIIKKLIERKQAQIRKVYPGLSCFKDGVRQIPIESIPGIRETGWKPSGKEKSKEPRDPDQLYSTLKSILQQVKSHQSAWPFMEPVKRTEAPGYYEVIRFPMDLKTMSERLKNRYYVSKKLFMADLQRVFTNCKEYNPPESEYYKCANILEKFFFSKIKEAGLIDK
# Biological target: bacterially expressed USF-1, P22415
# Sequence (P22415 whole entry, looked up): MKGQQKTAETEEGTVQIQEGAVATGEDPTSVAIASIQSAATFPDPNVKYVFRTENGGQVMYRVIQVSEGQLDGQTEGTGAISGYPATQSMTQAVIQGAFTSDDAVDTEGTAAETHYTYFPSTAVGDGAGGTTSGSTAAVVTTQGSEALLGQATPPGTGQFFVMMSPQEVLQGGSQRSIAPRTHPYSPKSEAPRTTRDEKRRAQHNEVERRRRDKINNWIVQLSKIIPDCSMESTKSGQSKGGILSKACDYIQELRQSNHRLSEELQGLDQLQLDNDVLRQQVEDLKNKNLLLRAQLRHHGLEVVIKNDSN
protein,measurement,value
B1,in vitro acetylation of USF-1,"USF-1 was acetylated in vitro by P/CAF (lane 3), and acetylation was not detected in the absence of P/CAF or acetyl CoA (lane 1 and 2)"
